± gives the standard deviation of the averaged measurements.
Tested on: ATP
Assay: switch fluorescence ratio, 500 uM ATP over buffer (Cy3 cluster intensity, sum of 5 cycles each) (fold (ratio)); higher = stronger signal-on switching upon ATP binding; sequences stand for … in TCGTCGGCAGCGTCAGATGTGTATAAGAGACAGTTTTTTTTTTTTTTTTTTTTTTTTT…TC
Settings: aptamer strand: ATP DNA aptamer (quencher-CACCTGGGGGAGTATTGCGGAGGAAGG + anchor), 100 nM annealed; ATP concentration: 500 uM
Method in brief: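 Exposure to 500 uM ATP lasted 15 min at 22 °C before imaging, and a selection-buffer image was taken beforehand, for Cy3-labelled switching-strand clusters on a modified Illumina MiSeq flow-cell annealed to 100 nM quencher-labelled ATP aptamer. Five buffer/ATP cycles were run with NaOH stripping and re-annealing between them. The fluorescence ratio per cluster is summed target-cycle over summed buffer-cycle Cy3 intensity, averaged per switch-domain sequence. Clusters outside 100-1000 RFU were excluded.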

Row | Sequence | switch fluorescence ratio
1 | ACGATCTCCA | 1.035 ± 0.005
2 | ACGATGGGGA | 1.04 ± 0.034
3 | ACGATGGTTT | 0.984 ± 0.04
4 | ACGATGTAAA | 0.9574 ± 0.0042
5 | ACGATTCAAG | 1.02 ± 0.061
6 | ACGATTGGTT | 1.005 ± 0.01
7 | ACGCACTAAG | 1.61 ± 0.026
8 | ACGCAGGCTT | 1.05 ± 0.011
9 | ACGCAGGTAT | 1.04 ± 0.061
10 | ACGCAGTATG | 1.03 ± 0.031
11 | ACGCCGGGCT | 1.07 ± 0.054
12 | ACGCGACGGA | 1.07 ± 0.079
13 | ACGCGCTTTA | 0.99871 ± 0.00033
14 | ACGCGGAGTA | 0.997 ± 0.038
15 | ACGCGGCGTG | 0.982 ± 0.03
16 | ACGCGGCTAT | 1.06 ± 0.033
17 | ACGCGGGGGA | 1.03 ± 0.014
18 | ACGCGGGTAA | 1.023 ± 0.0095
19 | ACGCGGTCCA | 0.988 ± 0.019
20 | ACGCTTCTTG | 1 ± 0.028
21 | ACGCTTGAAT | 1.01 ± 0.023
22 | ACGGAAAAAG | 1.01 ± 0.026
23 | ACGGAATTGT | 1.07 ± 0.029
24 | ACGGACATCT | 1.28 ± 0.022
25 | ACGGACCATG | 1.11 ± 0.042

Row | Sequence | switch fluorescence ratio
26 | ACGGACCCGG | 1.36 ± 0.42
27 | ACGGACGTTC | 1.15 ± 0.015
28 | ACGGCATTAT | 1.164 ± 0.0042
29 | ACGGCCTGTT | 1.02 ± 0.017
30 | ACGGCCTTAT | 0.991 ± 0.033
31 | ACGGCGAGAG | 1.06 ± 0.03
32 | ACGGCGAGGT | 1.03 ± 0.032
33 | ACGGCGAGTC | 1.01 ± 0.024
34 | ACGGCTGCGG | 0.987 ± 0.035
35 | ACGGCTGTGC | 1.02 ± 0.013
36 | ACGGGACGCA | 1.089 ± 0.0019
37 | ACGGGACGGA | 1.034 ± 0.0065
38 | ACGGGACGTA | 1.04 ± 0.014
39 | ACGGGCATTT | 0.994 ± 0.04
40 | ACGGGCGGCG | 0.979 ± 0.047
41 | ACGGGCTTCT | 1.005 ± 0.0047
42 | ACGGGGGACT | 1.02 ± 0.049
43 | ACGGGGGATT | 1.03 ± 0.034
44 | ACGGGGGGCA | 1.01 ± 0.048
45 | ACGGGGGGGC | 1.09 ± 0.06
46 | ACGGGGGGGG | 1.02 ± 0.048
47 | ACGGGGGGGT | 1.09 ± 0.081
48 | ACGGGGTTGT | 1 ± 0.024
49 | ACGGGTAAAT | 1.01 ± 0.036
50 | ACGGGTGCGT | 1.017 ± 0.0027

Row | Sequence | switch fluorescence ratio
51 | ACGGTAACTC | 1.27 ± 0.03
52 | ACGGTACGGA | 1.21 ± 0.05
53 | ACGGTCCAGG | 3 ± 0.5
54 | ACGGTCCGGG | 1.06 ± 0.036
55 | ACGGTGAACC | 0.989 ± 0.06
56 | ACGGTGAATG | 1 ± 0.038
57 | ACGGTGACTA | 1.1 ± 0.023
58 | ACGGTGATGG | 1.018 ± 0.0071
59 | ACGGTGGTCG | 0.913 ± 0.033
60 | ACGGTGTGGC | 1.03 ± 0.072
61 | ACGGTTAGTC | 1.04 ± 0.016
62 | ACGGTTCTTT | 1.01 ± 0.03
63 | ACGGTTGAAT | 0.9882 ± 0.0084
64 | ACGGTTTCGT | 1.01 ± 0.014
65 | ACGGTTTCTG | 1.04 ± 0.029
66 | ACGGTTTCTT | 0.9771 ± 0.0039
67 | ACGGTTTGCG | 0.979 ± 0.011
68 | ACGGTTTTGC | 0.997 ± 0.013
69 | ACGTAACCTA | 1.28 ± 0.014
70 | ACGTAATTGG | 1.21 ± 0.01
71 | ACGTAGGGGG | 0.988 ± 0.032
72 | ACGTAGTGGC | 1.04 ± 0.02
73 | ACGTAGTGTC | 1.03 ± 0.018
74 | ACGTATCTTG | 1.08 ± 0.038
75 | ACGTATTAAT | 1.12 ± 0.031

Row | Sequence | switch fluorescence ratio
76 | ACGTATTTTC | 1.171 ± 0.0024
77 | ACGTCCGTTT | 1.04 ± 0.019
78 | ACGTCGCGGG | 0.9877 ± 0.0019
79 | ACGTCTGGCT | 0.996 ± 0.028
80 | ACGTCTTCAC | 1.069 ± 0.002
81 | ACGTGACCCA | 1.35 ± 0.071
82 | ACGTGGGGAG | 1.08 ± 0.022
83 | ACGTGGGGTA | 1.04 ± 0.022
84 | ACGTGGGGTC | 1.02 ± 0.022
85 | ACGTGGGTCT | 1.01 ± 0.028
86 | ACGTGGTAGC | 1 ± 0.03
87 | ACGTGTATTT | 1.08 ± 0.09
88 | ACGTGTGTTT | 1.01 ± 0.017
89 | ACGTGTTTTG | 1.02 ± 0.018
90 | ACGTTAGGGG | 1.14 ± 0.14
91 | ACGTTATAAG | 1.1 ± 0.011
92 | ACGTTCCGAG | 2.54 ± 0.32
93 | ACGTTCCGCT | 1.099 ± 0.003
94 | ACGTTCTATA | 1.026 ± 0.0088
95 | ACGTTGATTC | 1.03 ± 0.047
96 | ACGTTGGGGG | 1.01 ± 0.028
97 | ACGTTGGTGG | 1 ± 0.012
98 | ACGTTGTTTT | 0.984 ± 0.011
99 | ACGTTTAGAA | 1.01 ± 0.029
100 | ACGTTTTAAG | 1.01 ± 0.032
